Test results: patent US8221990B2, “Screening GPR12 receptor for substances having Nesfatin-1-like action, or which regulate Nesfatin-1 action” (Teijin Pharma Limited, priority 2007, dated 2012)

T1: mouse GPR12 (Mus musculus, UniProt P35412)
T1 construct: expressed in transfected cells
T1 sequence (P35412 1-334): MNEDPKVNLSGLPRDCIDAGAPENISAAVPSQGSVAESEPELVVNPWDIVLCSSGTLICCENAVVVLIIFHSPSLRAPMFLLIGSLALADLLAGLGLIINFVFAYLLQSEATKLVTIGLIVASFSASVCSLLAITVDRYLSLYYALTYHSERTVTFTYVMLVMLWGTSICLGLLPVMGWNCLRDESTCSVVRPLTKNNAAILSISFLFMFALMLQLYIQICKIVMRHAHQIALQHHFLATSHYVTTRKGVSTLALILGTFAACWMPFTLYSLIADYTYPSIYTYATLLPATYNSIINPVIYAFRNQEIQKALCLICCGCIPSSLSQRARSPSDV

T2: GPR12 (Mus musculus, UniProt P35412)
T2 construct: in which GPR12 was endogenously expressed; endogenous in cells; host or cells: NB41A3 cells (ATCC-CCL147), mouse brain neuroblastoma
T2 sequence (P35412 1-334): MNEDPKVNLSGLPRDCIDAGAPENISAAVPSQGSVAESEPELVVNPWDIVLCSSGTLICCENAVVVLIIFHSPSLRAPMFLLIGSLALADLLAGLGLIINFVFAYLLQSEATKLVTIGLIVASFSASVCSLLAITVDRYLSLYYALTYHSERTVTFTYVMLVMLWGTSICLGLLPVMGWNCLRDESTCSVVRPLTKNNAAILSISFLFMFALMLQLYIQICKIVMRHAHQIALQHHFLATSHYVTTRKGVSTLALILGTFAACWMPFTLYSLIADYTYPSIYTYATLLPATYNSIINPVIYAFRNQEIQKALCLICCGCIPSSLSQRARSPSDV

T3: mGPR12 (Mus musculus, UniProt P35412)
T3 sequence (P35412 1-334): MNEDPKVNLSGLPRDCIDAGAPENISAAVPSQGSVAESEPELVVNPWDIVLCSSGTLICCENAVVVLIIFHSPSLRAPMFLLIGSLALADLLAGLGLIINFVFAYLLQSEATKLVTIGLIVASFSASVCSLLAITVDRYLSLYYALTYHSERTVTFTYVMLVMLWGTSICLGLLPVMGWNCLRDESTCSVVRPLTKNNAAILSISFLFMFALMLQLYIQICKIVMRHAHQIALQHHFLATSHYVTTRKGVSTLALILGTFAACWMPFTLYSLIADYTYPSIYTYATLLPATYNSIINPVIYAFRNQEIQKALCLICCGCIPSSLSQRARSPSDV


Key:
mouse GPR12 = biological target: T1, mouse GPR12; assay: cAMP production in CHO-K1-cell stable expression system (CHO-K1-GPR12); assay type: cell-based; conditions: CHO-K1-GPR12, peptide 10^-9 M, Forskolin 10^-5 M, 30 minutes
Protocol: The preparation of cells stably expressing GPR12 was conducted by a conventional method, and hereinafter described briefly. A vector (pcDNA3.1-GPR12) in which a gene (cDNA) encoding mouse GPR12 (SEQ ID NO: 8) was inserted at the downstream of a CMV promoter of pcDNA3.1 (TM) (Invitrogen Corporation) was prepared, 10 μg of the vector was mixed with 250 μL of medium OPTI-MEM™ (Invitrogen Corporation), and 10 μg of Lipofectamine™ 2000 Reagent (Invitrogen Corporation) was mixed with 250 μL of medium OPTI-MEM™, 5 minutes later both mixtures were mixed, and the resultant mixture was left over at room temperature for 20 minutes to prepare a transfection reagent. Chinese hamster ovary cells (CHO-K1) [ATCC Cat. No. CCl-61] plated onto a 6-well plate at 1.5×10^6 cells/well on the previous day in advance were washed with medium OPTI-MEM™ once, and the above-mentioned transfection reagent (vector and Lipofectamine™ 2000 Reagent) was added to the cells dropwise to perform transfection. The resultant transfected cells were incubated at 37° C. for 5 hours in a CO2 incubator, and then the medium was replaced by Ham's F12 medium. Further, the next day the medium was exchanged with Ham's F12 medium containing 100 μg/mL of Geneticin® (Invitrogen Corporation), and furthermore the next day the medium was exchanged with the same medium containing 200 μg/mL of Geneticin®, and the following day the medium was exchanged with the same medium containing 700 μg/mL of Geneticin®, and after that, culturing was continued under the conditions of 37° C. and 5% CO2 in a medium containing Geneticin® at the same concentration. […]
The measured intracellular cAMP level was evaluated in terms of a ratio (Fold) of each intracellular cAMP level with respect to the mean of the intracellular cAMP level in the (−) group that is set as unity, in which CHO-K1-GPR12 cells were cultured in the medium containing no peptide.

[1] = Amount of food intake in a mouse after intraperitoneal administration; assay type: in vivo; conditions: C57BL/6J male mouse, 0.25 nmol per gram of body weight, 0 to 3 hours
Protocol: A 7-week-old C57BL/6J strain male mouse (CLEA Japan, Inc.) was used as an experimental animal. After purchasing the mouse, the mouse was raised at 22° C. in cycles of the 12-hour light period from 6 a.m. to 6 p.m. and the 12-hour dark period from 6 p.m. to 6 a.m. on the next morning with free access to pelleted feed (CLEA Japan, Inc., CE-2).
A 5 nmol aliquot of Nesfatin-1M30 (Mid-segment, SEQ ID NO: 11), M30_Ag-A (SEQ ID NO: 50), or M30_MSH-A (SEQ ID NO: 51) was dissolved in each 100 μL of saline, and each of the resultant solutions was administered intraperitoneally to a C57BL/6J mouse at a dose of 0.25 nmol per gram of body weight of the mouse. In the control group, only saline (Vehicle) was administered. Each mouse (5 mice in each group) was intraperitoneally given a single injection of a sample using a tuberculin syringe with 26 G needle, immediately before the dark period (6 p.m.).
Each mouse administered was placed in an individual cage, and the amount of food intake was determined by measuring the decreased amount of the pelleted feed during the period from 0 to 3 hours after the administration of a test substance. In the mouse administered with each test sample, the amount of food intake during 3 hours after the administration (g/3 h) is shown in FIG. 6.

GPR12 = biological target: T2, GPR12; assay: Expression of a CRE-reporter gene (pCRE-Luc luciferase) in NB41A3 cells expressing GPR12 endogenously; assay type: cell-based; conditions: NB41A3 cells transfected with pCRE-Luc, 10^-12 M to 10^-8 M, 16 hours
Protocol: NB41A3 cells (ATCC-CCL147), a cell strain derived from mouse brain neuroblastoma, in which GPR12 was endogenously expressed were used. The confluent NB41A3 cells were recovered in a 10-cm dish, plated onto 10 cm-dishes after dividing the cell colony in four quarters, and cultured for one day in Ham's F12K medium. The cells were transected with 5 μg of the reporter plasmid pCRE-Luc (Stratagene Corporation, Catalog No. 219074) in which TATA-BOX and luciferase were incorporated into downstream of CRE by a calcium phosphate method. The cells were washed with Ham's F12K medium 16 hours after the transfection. Ham's F12K medium containing no test substance (Vehicle), Ham's F12K medium containing 10^−10 M of Nesfatin-1 M30 (Mid-Segment: SEQ ID NO: 11), Ham's F12K medium containing 10^−10 M of a modified peptide M30_Ag-A (SEQ ID NO: 50) (M30_Ag-A), and Ham's F12K medium containing 10^−10 M of a modified peptide M30_MSH-A (SEQ ID NO: 51) […] were added to the cells, and the resultant mediums were cultured under the conditions of 37° C. and 5% CO2 for 16 hours. After the culturing, the cells were washed twice with phosphate-buffered saline (PBS), lysed with 4 mL of lysis buffer (an aqueous solution containing 25 mM of glycylglicine (pH 7.8), 15 mM of magnesium sulfate, 4 mM of glycol ether diaminetetraacetic acid (EGTA), 1 mM of dithiothreitol (DTT), and 1% (volume/volume) of Triton X-100). […] After adding 200 μL of 0.2 mM of d-luciferin to the diluted cell lysate, the luminescence was measured for 10 seconds by a luminometer, and the amount of luminescence (units) was determined. Further, the amount of protein in each cell lysate was measured by BCA™ Protein Assay Kit-Reducing Agent Compatible (Pearce, Catalog No. 23250), and the value obtained by dividing the amount of luminescence (units) by the amount of protein (μg) in a sample was determined as a luciferase activity. […] The cells were cultured for 16 hours, and then the level of luciferase activity was also determined.

mGPR12 = biological target: T3, mGPR12; assay: cAMP production in HeLa-cell transient expression system; assay type: cell-based; set-up: expressed in transfected cells; host or cells: HeLa cells (transient, lipofection); conditions: mGPR12-transiently expressing HeLa cells, ligand 10^-6 M
Protocol: A GPCR expression vector prepared in Example 4 was introduced into HeLa cells by lipofection and transiently expressed.
HeLa cells were peeled off using trypsin EDTA and recovered, and plated onto a 6-well plate with 7×10^5 cells/2 mL/well to perform overnight culture using a CO2 incubator. The next day, a plasmid solution was prepared by adding 4 μg of plasmid into 250 μL of a serum-free Opti-MEM medium. On the other hand, a Lipofectamine 2000 solution was prepared by adding 10 μL of Lipofectamine 2000 (Invitrogen Corporation) into 250 μL of the serum-free Opti-MEM medium. These solutions were incubated at room temperature for 5 minutes, and the Lipofectamine 2000 solution was added bit by bit into the plasmid solution. The resultant mixture was incubated at room temperature for 20 minutes to prepare a solution for lipofection. […]
The 5× Ligand solution was added at 20 μL/well so that the final concentration may become 10^−6 M, and the plate was incubated in a CO2 incubator for 30 minutes. […] Further, in order to lyse the cells completely, the cells were frozen once at −20° C. and lysed again, and then the intracellular cAMP concentration was measured using cAMP-Screen System (Applied Biosystems, T1500).

| intracellular cAMP level compared with the group (-) cultured in medium containing no peptide (mouse GPR12) | concentration-dependent enhancement of the luciferase activity (GPR12) | Molecule | amount of food intake during 3 hours after the administration compared with control group (Vehicle) [1] | cAMP production (mGPR12; with Forskolin addition (2 μM)) | cAMP production (mGPR12; without Forskolin addition) |
| --- | --- | --- | --- | --- | --- |
| hardly elevated | not found | M30_Ag-A: human Nesfatin-1M30 with the 11th (Leu) and 13th to 17th residues from the N-terminus substituted with alanine, SEQ ID NO: 50 (PDTGLYYDEYAKAAAAALETDKHFREKLQK; Synthetic M30_Ag-A peptide) | no difference |  |  |
| about 10 fold | observed | M30_MSH-A: human Nesfatin-1M30 with the 22nd to 25th residues from the N-terminus substituted with alanine, SEQ ID NO: 51 (PDTGLYYDEYLKQVIDVLETDAAAAEKLQK; Synthetic M30_MSH-A peptide) | significant decrease of the food intake |  |  |
|  |  | mouse Nesfatin-1: recombinant mouse Nesfatin-1 (82 amino acids) expressed in Escherichia coli as a GST-His fusion protein and cleaved by thrombin (protein) VPIDVDKTKVHNTEPVENARIEPPDTGLYYDEYLKQVIEVLETDPHFREKLQKADIEEIRSGRLSQELDLVSHKVRTRLDEL |  | increase in cAMP production was confirmed | increase in cAMP production was confirmed |
